Measured values published in the domain aggregation screens of Martell et al. (2025).

Experiment: soluble fraction after stress (log2 fold change); higher = more stays soluble; pooled small domains, quantitative proteomics
Details: stress: 50 degC
Method in brief: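 Each library was heated to 50°C as a stress step. The libraries, made up of small protein domains, were pooled and analysed at high throughput by quantitative proteomics. The reported value is the base-two logarithm of the fold change in each protein's soluble amount after stress, taken as a measure of aggregation propensity. The higher the value, the more protein stays in solution.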

| Sequence | soluble fraction (log2) |
| --- | --- |
| HMTFKDIMENYTISRIENTINSAVVFLDEINAYITIDKTQLPSNLRYDTDSKIMASQIPDDAKIKYFMIYW | -1.99 |
| HMTFPIDINRADTEQLTALPGIGEVLAKRIIAYREENGSFLSTDELKNVEGIGEKRLEAIVDLITIG | 0.113 |
| HMTFSDKIRELRKQKGVSQAVVAEYLGITKQAYSLYETGKREPDFDSLLKLAEYFGTDTDSLLY | -0.309 |
| HMTGEEVLIMLGEKMKLIRNYNGYSQRQIAEILKIERSTYASYETGRNRPDIFAVQRFAKIFNVSVDYIL | -0.118 |
| HMTGELEVTAAGLSPEKLLNLAAKNHITLSNVKRLSYTQLSFRIGPADYNRLKKLLPEGRYKLNVGSS | -0.289 |
| HMTGESIPFSKFLSEVDSGRVINVEIQGNNISGLLSDGNKFKTYSPNYPNLVEILSEKEVSIVATPLE | 0.0525 |
| HMTGGLTQEQISQLRMLTPQQIEQLRQLQPQQVEMLRQLRPEQVMLLTQLEPQQIMAFMRLEPSVIMQL | -0.215 |
| HMTGGMVTYIIEKGEGFFSLERKFGLSENELIKLNPSLKSGLKSEMQINIPKENYDRYVASS | -0.0276 |
| HMTGIESVKPSSDFTVEGNRIVAGDAEVEVYDLAGRKVNNNNLTTGVYIAKIAGSAESVKVFV | 0.0109 |
| HMTGIQDVPALETRRVGNTFFFDRATDVQVYDLQGRLLQQARKVTSVSIGHLQQGVYVLTDGRASVKVQ | -1.23 |
| HMTGIQLNDRERAILQHLSDGLTTKAIAERIFLREDTVKWYRKNLLARFEQPIVAALVKWAVLEGLV | 0.141 |
| HMTGIVVVDVVGQVGRPGLVSLPAGSRVADAITAAGGATPEADVSLLNQARLVIDGEQIRVPRPGEVIAA | -0.0367 |
| HMTGKVSHGERKSVLVSLAGSMRARGMSIDAVRAGLYADNEKRFDPPLDERDIEDVLNSAKKWGDP | -0.322 |
| HMTGMDALIGRRVFVSEEILPGDAGGRVAVDGDSWRAISVGTAKPIPAGTEVRIHGYKSLILEVEPI | -0.162 |
| HMTGQHFDLEDTDGNLVYEIDSTVPLKTFYIYDAMHTEIFRMTKELLHALPTYRFYLYGEPYGVLKKQ | -0.174 |
| HMTGRVKWYDATKGFGFVTSDEGGDVFLPKGALPAGVADLKTGQRIEFGVVDSRKGAQALGVK | 0.337 |
| HMTGSAETRGITLTDEQVTVWAKDGSWANYVYRATDGNWYDGSGRLYYENGGGEWTQAATGEQGS | -0.0258 |
| HMTGSALDATIEKLLDLGSKAGSVTEDEIQIVLKNVDVTDAQLSSIYQFLRDRGVEIVSATEDDD | 0.0977 |
| HMTGVPYLVRVKITDLHIRSGPGTNYASKGFIAPGAYTIVEESTGQGAALWGKLKSGKGWIALGYTEK | -1.09 |
| HMTHAISKTYAVTGEQLKNGFTLTHTFANGSTRRVDVYPGSRSGKVIAVRNTTDDTTEWIRIVEG | 0.0444 |
| HMTHSEYVGRHGIAATSLRPAGAATIDGSRVDVVTSGEYIEKGTPIEVMTVNGSTVRVKAVPQIP | 0.0508 |
| HMTIDANAIEKMVLDLIGEHPNEWGRYRDGDKKVQGFFVGQIMKATSGQADGKIVNQILSQHAEA | -0.115 |
| HMTIELAEGQHFLQISKSGAPMGNVVRDLIIQTLKITNGNQIKAAKILGISRAKLRYRIEQLGINITGKNI | -2.67 |
| HMTIERVKIKETPTGWLRVRETPDNNGSEIGRANVGEIYELLGSKGEWYHIVYKGKQGFISTKYAEKVL | -0.22 |
| HMTIGEALLNLRKQLGLNQTEMAANVVSTSFYSKVERNIHDIGTKDLLQILNKHQINATYFFENLN | -1.91 |
| HMTIHVMEIKSLLPIKILDESQHLVQSFSSKNPTSYNYRLIFSDKSKLENIKKTINENKDVESIEIRYA | -0.816 |

| Sequence | soluble fraction (log2) |
| --- | --- |
| HMTILTSSQRKALISKMIRQGGVESQSHLVKLLAREGVKVTQATASRDLEDLGATRVRDANGEFQYVIP | -0.271 |
| HMTINQIDPASGRKVGYWIITGEMKPKEGFSPDNKIEEGIYVNSRKSGKWIKYWPNGNVRSEIIYKNGR | -0.549 |
| HMTITPEVIVNHFKNLDLFFTKNGNYYEFKKKGTENILFKYGIYKQKPNIFVKIQRYPISSLSDLERIPI | -0.844 |
| HMTIYLSENIKRLRLEKELTQETLSEFLGVTSQSVSNWERGESYPDITMLPEIADFFKVSVDELLGVNRAE | -0.889 |
| HMTIYPFNPNYLKDYQAYRVGLSLKEIDALLDFRSSGQWINSAEDFQRITGVSDSVLEQLIPYFKFS | -2.49 |
| HMTKASYKITTPSGVNVREGAGKRYAVRKAYPKGKTVTVTQTKEVNGNLWGKTSDGWFAIKYQGAVYASA | -0.97 |
| HMTKDEFLTTLRTLIQDMPPEDRRDVMNYYTEYFEDAGPEREQEVLRQLGSPEQVAREVLGG | -0.0225 |
| HMTKDVIEIVDGNKFVFHKTIATDSVSSVINKYHISEADFRTWNELTGDMKVGEEYIVQLSLH | -1.26 |
| HMTKKFQIQTLDKLNVRKVADWNASAVTTVKKGQILDVVAEVSPKNGSTKMYKLESGLYITASEKYVKKQG | 0.0509 |
| HMTKLPLLVELSRIIPTDTWVKKIKFSLGSVEFVGISKSASRLLPIVENSSYFHDTKFIGTIVT | -0.486 |
| HMTKNIIVTTSVKTSDELVEVAKNHALNLELDFNYRNKKTIKELLSSFDGLVVIYKNKISYFEDNSELF | 0.0798 |
| HMTKQDYLTALQQELNKNAVADAEDIVSEYEQHFQFKLADGFTEEEIAAKLGAPAQIALQFAG | 0.167 |
| HMTKQRSIILDLLKANQDRHLTAEEMLELLNQNHTPVSKATLYRYLDMLVSQNAVRKFIIDDQPSAGYQYL | -1.34 |
| HMTKSTSMDLGGFMIVEGSETVRLGGQILQKDVDYTIDYFSGKINFISEEALNPGAEISVSYEENQ | -0.187 |
| HMTKTEFLEALRRALNGNMAAASVEDNLKFYENYFYSEEAKGRSEAAVLSELGDPRILARTLIDAAER | 0.0765 |
| HMTKTEFLNLLEQRLFVLNDNERADLLSEYKQHIEMKIQSGLSEEEAIADFGDPEELIKELLEAY | -0.33 |
| HMTKTFDSPEDADNDVLAKTLFQIFGVQSVYLKENFVTITKSNSVGWHTLMEKTGHTLEEHLKF | 0.0987 |
| HMTKTKFLSKDMILSAMSRTKSNRAAARYLSVSFVHYKKYAREYKDETSGVSLWEKHKNQSGTGIPK | -1.92 |
| HMTKTSQEDEDIMRHLDELHTRWPFLGQRKLIEELKDQGIQIGRKRLRRLMKVMGIEAIAPK | -1.29 |
| HMTKVMVPNVVGMSRGEAEEALRGVKLQVDLKREVSDDPEVKPEEVLRQTPDAQTSVPQGSVVTLYVADKP | 0.355 |
| HMTKYEKKIFEIVNASRDHLTAEQVLAALREEYPAVSQATVYNNLKKLTSDGLLRKLTLADSPDRYD | -0.208 |
| HMTLAAATESREYLADLARRLDAADHGDKTRIKAEAAGLLGWSMATLHARLARDVGWTSGRK | -0.0944 |
| HMTLDEFTDLMNLFKTGHIEQKPVILYGYNYWTSLKSWFEFNNMKFPEMYIDGIINTVDEFKILYNKIF | -0.982 |
| HMTLGPKQMGEAIIKNLKEKTGKSLEEWSQRILIHELTDKKEIIDFLKNDNGLGHFQALKIFEHLNGK | -0.02 |
| HMTLGQHIQALRKEAGYSQEALGEALGVTRQSISKWESDQAIPEVDKLVTLSRLFQVPVGVLLQVEQP | -0.16 |
| HMTLGSVRTVRQVLDDGRLLVADSGGNVTLVRRAGTLAKENVNTGDRVSVDSSVRFALTLIPV | -0.0338 |

| Sequence | soluble fraction (log2) |
| --- | --- |
| HMTLPEKSKRLFSQDDFWDQIFYRIGEGQSLREVSKYYKIPYTTIHDRIHSDEGIKLKYLEALTS | -0.71 |
| HMTLPQEPTVLPRPLRVGDTVHIRTLDKDAEVLALPDARGMVAVRAGIINTKVKLTDLTLVEEK | 0.179 |
| HMTLRDRDQALEELWGQLADVPMDSETERLLEPFMGWGVGVSRDEIWHWFDRRHSKGIGHLLYS | -1.55 |
| HMTLSENEKIIVDTIMKYQPLHIDVLNQQVKVDFYTLLGLLTKLEMEGIVLKNPGNIYKINTL | -0.346 |
| HMTLTPEQQAARRSEIVDIALRLIAENGFQKTSMREIADLAKMGKSSLYDFFKTKDEIAVYAMEKK | -0.283 |
| HMTMEFGEFLAKLRKERGYYQKEVAAYLNVTVATISNYEKNVHAPDLDTLVKLADFYDVSTDYLLQRT | -2.98 |
| HMTMGAAEAQALKDEALELYRTGGTQEDVVRAIEMYEQAAEAGNAQAASDLAYLKANGVYETAMNN | 0.268 |
| HMTMQQGTISRLNHSRGFGFLTTPDGEDLFFHRTNVHETPFARLQVGDRVTYDVQVTPRGTRADKVQLNM | -0.0328 |
| HMTMRFVVADGQNFGSIAQSKALEAVKKGNTEFNYKDVDYTVDIQSDDFYVVYQGRDIMGYASR | -2 |
| HMTMTIEITVNGKTKTLVAELSLADLLRDLGMTKGRIAVELNGHIVPRSQFSSKTISNLDSIEIVQ | -3.23 |
| HMTNADRYIGQEATVTEKISNELSTGAVRIGGLVWTARTVDNSEAEEGERVTVEAIEGAKLLVKRR | -0.0108 |
| HMTNEPRLTNMGFNKMLIENYKMILEYQDFFIRISTQIGIININGFDLKLGEMTADEVLVTGKIESIDL | 0.53 |
| HMTNIDRLIGQTAIVKETINNKKEQGVVRINGMDWTARTEEIDEVILKGKPVEILDIQGIKLIVRKK | -0.153 |
| HMTNIELYQRLLNLGFTPAQAKILLVQYDETRLTDNLNYVDFKKQQGNIENLPAYTTTIIKKDVRL | -0.389 |
| HMTNIQFINLKMTDNHPWIHQYIKDIILPPQTRIVMIKRNDIKTIPKGERRIEKDDELILSAFESQT | -1 |
| HMTNKKIILEIFQNSDKPLIVEEISKKMFEKTGKKMILSTIYRNLKNMEDVGILKKIYNEDGSYMYIF | -0.953 |
| HMTNKQEYAYQWLKSSIIENKIKPSTLLVERHLSEMLHISRTPVRTALMRLADEGFVVISPGRGMVVA | -2.03 |
| HMTNQEFNAAFKPFLDYFPTTEMTKEKINIYYLALSDLSKEQLGSAFISMVKNRVYKNFPQVAEIRQYATN | -0.0953 |
| HMTNTDYPGKVVPVDPDGKTLKPDGDASYNDKPGTKVKTPTVPGYTAEVPNVEVPVGGGDIKVTYHKKPV | 0.372 |
| HMTNVYSLIGKRGIVVEDIDWQKGTGQVKIDGELWSVKTNEQINISKGTEVEVENIEGVKVFVKPI | 0.09 |
| HMTNYGTVRPGARGQAVTALQQALIRHGYKLTADGIYGRATRQAVRAFQQKHKLKVDGIVGSKTWALLLAD | -1.04 |
| HMTPDGNATVWSANGYGVRLRTGPGKGYAIIGVYSVGTTVKVLERGPAGGWDHIQVGSRVGYMMNEFLHYY | -1.69 |
| HMTPDLSEFKERLRQILPGEPIEVRTANDGIVLSGTVTSIAALDRALDLAERYAPDKVSNLLSVG | 0.0882 |
| HMTPELTAEEREVLSLLGDEPRTLAELIAASGRDYAALSVLLMGLELSQAVRQLPGNRYERF | -0.934 |
